Measured values reported in the supplement of paper PMC10567573.

B1: MLL5 (parent)
chain: EQIAERKRKMVSWEASSLGLVTAA

Variants of: B1
Experiment: protein stability index of a GFP-peptide fusion (GPS, HEK-293T) (PSI 1-6); higher = more stable
Conditions: c terminus: a fixed tail appended
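Further: lentivirally expressed fusions sorted by FACS into six bins by GFP to DsRed ratio, PSI derived from sequencing read proportions per bin multiplied by bin number.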

Protein stability index of substitutions, site by site:
S16: Q 3.05 | P 3 | W 1.77 | R 3.57 | E 3.02 | I 1.94 | K 3.23 | H 1.57 | C 2.59 | T 2.77 | A 3.11 | V 2.29 | L 1.99 | D 2.86
E14: A 2.8 | C 2.49 | F 1.97 | M 2.24 | R 2.31 | D 2.07 | Y 2.52 | H 2.85 | Q 2.32 | G 2.2 | I 2.22 | L 2.95 | S 2.47 | V 1.97 | N 3.39 | P 2.44 | T 3
V11: W 3.34 | Y 3.14 | C 2.87 | T 2.87 | D 2.81 | G 3.39 | M 2.54 | F 2.63 | L 2.63 | E 4.18 | S 2.99 | P 3.55 | H 3.24 | Q 3.16
W13: V 4 | D 4.67 | Q 4.56 | N 4.02 | M 3.07 | L 3.86 | H 3.97 | K 3.85 | Y 3.29 | E 4.77 | G 4.82 | T 3.77 | S 4.33 | P 4.38 | A 4.19
A15: C 2.28 | H 3 | S 2.94 | R 3.98 | Q 2.93 | I 2.56 | N 2.67 | M 2.64 | F 2.08 | W 1.84 | K 2.74 | V 2.56 | L 2.32 | P 3.77 | Y 2.26 | E 3
M10: G 4.16 | C 3.29 | F 2.93 | Y 2.89 | V 2.82 | N 3.5 | A 3.83 | E 4.23 | H 3.44 | D 4.4 | T 3.55 | L 3.56 | R 4.01 | Q 3.95 | S 3.69 | K 3.7 | I 2.81
L18: A 3.31 | V 2.53 | I 1.91 | G 3.48 | Y 2.77 | T 3.5 | S 1.92 | F 2.43 | E 4.66 | K 3.86 | H 2.97 | D 4.24 | P 3.4 | R 3.01 | Q 3.72 | C 2.97 | M 3.16 | N 3.52
K9: M 2.38 | S 3.51 | T 2.31 | Y 2.97 | V 2.46 | N 3.84 | Q 2.59 | W 1.88 | R 3.06
S12: N 3.19 | A 3.35 | L 2.37 | P 2.59 | H 2.35 | C 2.36 | R 3.36 | Y 2.22 | V 2.68 | K 2.59 | D 2.85 | Q 2.33 | E 3.92 | M 3.36 | F 2.16
S17: F 1.37 | A 2.77 | C 1.44 | Y 2.43 | W 1.76 | D 2.98 | M 1.54 | H 2.7 | L 3.15 | V 2.31 | Q 3.08 | K 3.54 | P 3.46 | T 2.98 | G 3.12 | E 3.41 | N 2.71
G19: T 3.25 | R 3.16 | M 2.65 | K 3.09 | D 3.32 | S 3.84 | E 3.71 | N 2.95 | H 2.68 | A 2.1 | V 2.9 | C 2.38 | Q 3.49 | W 1.74 | Y 1.84
